The target in the test is SARS-CoV-2 Spike RBD-Fc (SARS-CoV-2). Put plainly: ELISA, RBD-Fc captured via anti-rabbit IgG, concentration-dependent binding. For orientation: An ELISA detects its analyte on a solid surface through an enzyme-linked reagent.

B1: HK CVX1-126 (antibody, V domains shown)
VH: EVQLVESGGGLVQPGGSLRLSCAASGLTVSSNYMSWVRQAPGKGLEWVSVIYSGGSTYYADSVKGRFTISRHNSKNTLYLQMNSVRAEDTAVYYCARDLSEGGMDVWGQGTTVTVSS
VL: DIQMTQSPSSVSASVGDRVTITCRASQGISSWLAWYQQKPGKAPKLLIYAASTLQSGVPSRFSGSGSGTDFTLTISSLQPEDFATYYCQQANGFPPLFGGGTKVEIKR
In general, EC50 refers to the concentration giving half of the maximal effect. The low end stands for a more potent agent, the high end for a less potent agent. Regarding B1, the EC50 came to 5.5 ng/mL.

B2: HK CV38-113 (antibody, V domains shown)
VH: EVQLVESGGGLVQPGGSLRLSCAASGFTVSSNYMSWVRQAPGKGLEWVSVIYSGGSTYYADSVKGRFTISRHNSKNTLYLQMNSLRAEDTAVYFCARGGRLADAAGDYWGQGTLVTVSS
VL: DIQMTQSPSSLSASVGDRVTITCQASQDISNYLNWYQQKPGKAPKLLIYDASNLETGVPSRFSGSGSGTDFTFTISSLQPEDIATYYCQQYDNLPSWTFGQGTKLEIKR
The molecule B2 yielded an EC50 of 5.2 ng/mL.

B3: HL CV07-270 (antibody, V domains shown)
VH: QVQLVESGGGLVKPGGSLRLSCAASGFTFSDYYMTWIRQAPGKGLEWVSYISSSGSTIYYADSVKGRFTISRDNAKNSLYLQMNSLRAEDTAVYYCARARGSSGWYRIGTRWGNWFDPWGQGTLVTVSS
VL: QSALTQPASVSGSPGQSITISCTGTSSDVGGYNYVSWYQQHPGKAPKLMIYEVSNRPSGVSNRFSGSKSGNTASLTISGLQAEDEADYYCSSYTSSSNVVFGGGTMLTVLG
In turn, B3 registered an EC50 of 14.2 ng/mL.

B4: HL CV07-283 (antibody, V domains shown)
VH: QVQLVQSGAEVKKPGASAKVSCKASGYTFTGYYIHWVRQAPGQGLEWMGLINPISGGTNYAQKFQDRVTMTRDTSISTAYMELSRLRSDDTAVYYCVRGPFYYDSSGPLGGMDVWGQGTTVTVSS
VL: QSALTQPASVSGSPGQSITISCTGTSGDVGGYNYVSWYQQHPGKAPKLMIYEVSNRPSGVSNRFSGSKSGNTASLTISGLQAEDEADYYCSSYTSSSTYVFGTGTKVTVLG
Molecule B4 yielded an EC50 of 4 ng/mL.

B5: HL CV07-222 (antibody, V domains shown)
VH: QVQLVQSGAEVKKPGASVKVSCKASGYTFTDYYVHWVRQAPGQGLEWMGWINPISGGTNYAQKFQGRVTMTRDTSISTAYMELSRLRSDDTAVYYCARGPYYYDSSGSLGAFDIWGQGTMVTVSS
VL: QSALTQPASVSGSPGQSITISCTGTSSDVGSYNLVSWYQQHPGKAPKLMIYEGSKRPSGVSNRFSGSKSGNTASLTISGLQAEDEAHYYCCSYAGGSTSYVFGTGTKVTVLG
Molecule B5 came in with an EC50 of 5.5 ng/mL.

B6: HK CV07-209 (antibody, V domains shown)
VH: QVQLVESGGGLVKPGGSLRLSCAASGFTFSDYYMSWIRQAPGKGLEWVSYISSSVSTIYYADSVKGRFTISRDNAKNSLYLQMNSLRAEDTAVYYCARDGVIPPRFDYWGQGTLVTVSS
VL: not shown
On to B6, for which the midpoint of the response, the EC50, lay at 4.1 ng/mL.

B7: HK CV07-287 (antibody, V domains shown)
VH: QVQLVQSGPEVKKPGTSVKVSCKASGFTFTSSAMQWVRQARGQRLEWIGWIVVGSGNTNYAQKFQERVTITRDMSTSTAYMELSSLRSEDTAVYYCAAPYCSSTNCYDAFDIWGQGTMVTVSS
VL: not shown
In turn, B7 yielded an EC50 of 5.9 ng/mL.

B8: HL CV07-315 (antibody, V domains shown)
VH: EVQLVESGGGLVQPGRSLRLSCAASGFTFDDYAMHWVRQAPGKGLEWVSGISWNSGSIGYADSVKGRFTISRDNAKNSLYLQMNSLRAEDTALYYCAKDFLWDLHPPRYYGMDVWGQGTTVTVSS
VL: QSVLTRPPSVSAAPGQKVTISCSGSSSNIGNNYVSWYQQLPGTAPKLLIYENNKRPSGIPDRFSGSKSGTSATLGITGLQTGDEADYYCGTWDSSLNGVFGGGTKLTVLG
B8 gave an EC50 of 7.2 ng/mL.

B9: HL CV07-250 (antibody, V domains shown)
VH: QVQLVQSEAEVKEPGASVEVSCKASGYNFTNFAISWVRQAPGQGLEWMGWISGYNGDTNSAQKFLGRVTMTTDTSTTTAYMELRSLRSDDTAVYYCAGSDNYGFPYNGMDVWGQGTTVTVSS
VL: QSALTQPPSASGSPGQSVTISCTGTSSDLGAYHFVTWYQHYPGKAPKVMIYGVRKRPSGVPDRFSGSKSGNTASLTVSGLQDEDEADYYCSSYAGNNDFVFGGGTKLTVLS
Turning to B9, the EC50 is 8.7 ng/mL.

B10: HL CV07-255 (antibody, V domains shown)
VH: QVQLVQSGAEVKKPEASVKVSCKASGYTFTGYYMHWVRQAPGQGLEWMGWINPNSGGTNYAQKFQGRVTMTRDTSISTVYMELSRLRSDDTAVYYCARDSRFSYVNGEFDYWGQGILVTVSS
VL: QSALTQPASVSGSPGQSITISCTRTSSDVESYNLVSWYQQHPGKAPKLMIYEVSKRPSGISNRFSGSKSGNTASLTISGLQAEDEADYYCCSYAGHSTWVFGGGTELTVLG
B10 had an EC50 of 4.8 ng/mL.

B11: HL CV07-262 (antibody, V domains shown)
VH: QVQLVQSGAEVKKPGASVKVSCKASGYTFTGYYMHWVRQAPGQGLEWMGWINPNSGGTNYAQTFQGRVTMTRDTSITTTYMELSRLRSDDTAVYYCARVGWYDFGTPGDYYYYYGMDVWGQGTTVTVSS
VL: QSALTQPASVSGSPGQSITISCTGTSSDVGSYNLVSWYQQHPGKAPKLMIYEGSKRPSGVSNRFSGSKSGNTASLTISGLQAEDEADYFCCSYAGTSTFVFGTGTKVTVLG
For the molecule B11, the response was half-maximal at 12.1 ng/mL (EC50).

B12: HK CV38-221 (antibody, V domains shown)
VH: EVQLVESGGGLVQPGGSLRLSCAASGITVSSNYMIWVRQAPGKGLEWVSVIYSGGSTYYADSVKGRFTISRDNSKNTLYLQMNSLRAEDTAVYYCARGFGDYYFDYWGQGTLVTVSS
VL: EIVLTQSPGTLSLSPGERATLSCRASQSVSSSYFAWYQQKPGQAPRLLIYGASSRATGIPDRFSGSGSGTDFTLTISRLEPEDFAVYYCQQLYTFGQGTKLEIKR
On to B12, for which the EC50 came to 6.4 ng/mL.

B13: HK CVX2-106 (antibody, V domains shown)
VH: QVQLVQSGAEVKKPGSSVKVSCKASGGTFSSYAISWVRQAPGQGLEWMGGIIPIFGTANYAQKFQGRVTITADESTSTAYMELSSLRSEDTAVYYCATRKETTVTTSLVYGMDVWGQGTTVTVSS
VL: not shown
B13 displayed an EC50 of 5.6 ng/mL.

B14: HK CV38-139 (antibody, V domains shown)
VH: EVQLVESGGGLVQPGGSLRLSCAASGFTVSSNYMSWVRQAPGKGLEWVSVFYSGGSTFYADSVKGRFTISRDNSKNTLYLQMNSLRAEDTAVYYCARGHYDLFDYWGQGTLVTVSS
VL: DIQLTQSPSFLSASVGDRVTITCRASQGISSYLAWYQQKPGKAPKLLIYAASTLQSGVPSRFSGSGSGTEFTLTISSLQPEDFATYYCQQLNSYPPGTFGPGTKVDIKR
Take B14: the EC50 was 8.9 ng/mL.

For the origin of these results see patent publication US20240376180A1 (DEUTSCHES ZENTRUM FUR NEURODEGENERATIVE ERKRANKUNGEN E V …, published 2024).
